Data taken from paper PMC7343719, “Immobilization of the Highly Active UDP-Glucose Pyrophosphorylase From Thermocrispum agreste Provides a Highly Efficient Biocatalyst for the Production of UDP-Glucose” (Frontiers in Bioengineering and Biotechnology, 2020).

Biological target: UDP-glucose pyrophosphorylase from Thermocrispum agreste DSM 44070 (TaGalU) (Thermocrispum agreste DSM 44070)
Assay: SEC; Superdex 200 10/300 GL 24 mL column, non-denaturing, 50 mM Hepes pH 7.0, 1 mM MgCl2; calibrated with protein standards

Substance: UDP-glucose pyrophosphorylase from Thermocrispum agreste DSM 44070 (TaGalU) (enzyme)
- stoichiometry N: 6
